Values of other authors in publication PMC8512968.

Molecular target: band 3 cytoplasmic domain (Homo sapiens) (UniProt P02730)
Test: sedimentation equilibrium AUC

For “band 3 cytoplasmic domain (from UniProt P02730)”, which Kd is on record?
Its Kd is 2.8 µM.
